Measurements taken from paper PMC5983490, “White-rot basidiomycetes Junghuhnia nitida and Steccherinum bourdotii: Oxidative potential and laccase properties in comparison with Trametes hirsuta and Coriolopsis caperata” (PLoS ONE, 2018).
Like-named read-outs stand apart in the source and are kept apart here.

What was measured:
[1] = test system: T1, JnL (Junghuhnia nitida laccase); test: spectrophotometric oxidation, […] nm, non-linear fit; format: biochemical; settings: 0.1 M McIlvaine buffer pH 4.5, 25 °C; read-out: Steccherinaceae group / JnL
T1 construct: peptides most similar to S. murashkinskyi laccase 2 / A. faginea laccase A

[2] = test system: T2, SbL (Steccherinum bourdotii laccase); test: spectrophotometric oxidation, […] nm, non-linear fit; format: biochemical; settings: 0.1 M McIlvaine buffer pH 4.5, 25 °C; read-out: Steccherinaceae group / SbL
T2 construct: peptides most similar to S. murashkinskyi laccase 2 / A. faginea laccase A

[3] = test system: T2, SbL (Steccherinum bourdotii laccase); test: spectrophotometric oxidation, […] nm, non-linear fit; format: biochemical; settings: 0.1 M McIlvaine buffer pH 4.5, 25 °C; read-out: Steccherinaceae group / SbL; remark: listed apart in the source
[4] = test system: JnL (Junghuhnia nitida laccase); settings: read-out: Steccherinaceae group / JnL; 0.1 M McIlvaine buffer pH 4.5, 25 °C
[5] = test system: JnL (Junghuhnia nitida laccase); settings: read-out: Steccherinaceae group / JnL; 0.1 M McIlvaine buffer pH 4.5, 25 °C; remark: listed apart in the source
[6] = test system: SbL (Steccherinum bourdotii laccase); settings: read-out: Steccherinaceae group / JnL; 0.1 M McIlvaine buffer pH 4.5, 25 °C
[7] = test system: T2, SbL (Steccherinum bourdotii laccase); test: oxygen consumption, Clark-type electrode, non-linear fit; format: biochemical; settings: 0.1 M citrate-phosphate buffer pH 4.5, 25 °C; read-out: Steccherinaceae group / SbL
From the text: oxygen consumption, Clark-type electrode, non-linear fit on SbL (Steccherinum bourdotii laccase)

[8] = test system: T1, JnL (Junghuhnia nitida laccase); test: as above; format: biochemical; settings: 0.1 M citrate-phosphate buffer pH 4.5, 25 °C; read-out: Steccherinaceae group / JnL
From the text: oxygen consumption, Clark-type electrode, non-linear fit on JnL (Junghuhnia nitida laccase)

[9] = test system: T2, SbL (Steccherinum bourdotii laccase); test: spectrophotometric oxidation, […] nm, non-linear fit; format: biochemical; settings: 0.1 M McIlvaine buffer pH 4.5, 25 °C; read-out: Steccherinaceae group / SbL; remark: listed apart in the source
[10] = test system: T1, JnL (Junghuhnia nitida laccase); test: spectrophotometric oxidation, […] nm, non-linear fit; format: biochemical; settings: 0.1 M McIlvaine buffer pH 4.5, 25 °C; read-out: Steccherinaceae group / JnL; remark: listed apart in the source
[11] = test system: T1, JnL (Junghuhnia nitida laccase); test: spectrophotometric oxidation, […] nm, non-linear fit; format: biochemical; settings: 0.1 M McIlvaine buffer pH 4.5, 25 °C; read-out: Steccherinaceae group / JnL; remark: listed apart in the source
[12] = test system: T2, SbL (Steccherinum bourdotii laccase); test: spectrophotometric oxidation, […] nm, non-linear fit; format: biochemical; settings: 0.1 M McIlvaine buffer pH 4.5, 25 °C; read-out: Steccherinaceae group / SbL; remark: listed apart in the source
[13] = substrate: COc1ccccc1O; test: purified protein, by the assay type; set-up: Laccase substrate oxidation kinetics, spectrophotometric initial rates, 25 °C, McIlvaine buffer pH 4.5; settings: 25.0 °C
Procedure: (§1) Kinetic constants were measured spectrophotometrically using a PerkinElmer Lambda 35 spectrophotometer (USA) at 25°C. […] 10 μl of enzyme solution at a concentration of 1 mg·ml^-1 (50 mM potassium phosphate buffer pH 6.5) was added to 2 ml substrate solution in 0.1 M McIlvaine buffer, pH 4.5. The reaction rate was measured by monitoring of the absorbance change during 3 min. […] It is interesting that syringyl-type substrates like 2,6-DMP, sinapic acid and syringaldazine were better in terms of Km and kcat/Km values for JnL and SbL compared to CcL and ThL.

[14] = substrate: O=C(O)c1cc(O)c(O)c(O)c1; test: purified protein, by the assay type; set-up: Laccase substrate oxidation kinetics, spectrophotometric initial rates, 25 °C, McIlvaine buffer pH 4.5; settings: 25.0 °C
Procedure: as §1

[15] = substrate: Oc1ccccc1O; test: purified protein, by the assay type; set-up: Laccase substrate oxidation kinetics, spectrophotometric initial rates, 25 °C, McIlvaine buffer pH 4.5; settings: 25.0 °C
Procedure: as §1

[16] = substrate: COc1cccc(OC)c1O; test: purified protein, by the assay type; set-up: Laccase substrate oxidation kinetics, spectrophotometric initial rates, 25 °C, McIlvaine buffer pH 4.5; settings: 25.0 °C
Procedure: as §1

purified protein [17] = substrate: COc1cc(/C=C/C(=O)O)cc(OC)c1O; test: purified protein; format: biochemical, Cerrena caperata; settings: 0.1 M McIlvaine buffer pH 4.5, 25 °C
purified protein [18] = substrate: COc1cc(C=NN=Cc2cc(OC)c(O)c(OC)c2)cc(OC)c1O; test: purified protein; format: biochemical, Cerrena caperata; settings: 0.1 M McIlvaine buffer pH 4.5, 25 °C
purified protein [19] = substrate: COc1cc(/C=C/C(=O)O)ccc1O; test: purified protein; settings: 0.1 M McIlvaine buffer pH 4.5, 25 °C
[20] = substrate: COc1cc(/C=C/C(=O)O)ccc1O; test: purified protein, by the assay type; set-up: Laccase substrate oxidation kinetics, spectrophotometric initial rates, 25 °C, McIlvaine buffer pH 4.5; settings: 25.0 °C
Procedure: as §1

[21] = substrate: COc1cc(C=NN=Cc2cc(OC)c(O)c(OC)c2)cc(OC)c1O; test: purified protein, by the assay type; set-up: Laccase substrate oxidation kinetics, spectrophotometric initial rates, 25 °C, McIlvaine buffer pH 4.5; settings: 25.0 °C
Procedure: as §1

[22] = substrate: COc1cc([C@@H]2OC[C@@H]3[C@H]2CO[C@H]3c2ccc(O)c(OC)c2)ccc1O; test: oxygen consumption, Clark-type electrode, non-linear fit; format: biochemical, Trametes hirsuta; settings: 0.1 M citrate-phosphate buffer pH 4.5, 25 °C
From the text: oxygen consumption, Clark-type electrode, non-linear fit on ThL (Trametes hirsuta laccase)

purified protein [23] = substrate: COc1cc(/C=C/C(=O)O)cc(OC)c1O; test: purified protein; format: biochemical, Trametes hirsuta; settings: 0.1 M McIlvaine buffer pH 4.5, 25 °C
purified protein [24] = substrate: COc1cccc(OC)c1O; test: purified protein; format: biochemical, Trametes hirsuta; settings: 0.1 M McIlvaine buffer pH 4.5, 25 °C

With `COc1cc(C=NN=Cc2cc(OC)c(O)c(OC)c2)cc(OC)c1O` [Syringaldazine] as the molecule, how does the Km [1] read?
The Km was 2 ± 0.4 µM.

And the Km [2]?
The Km was 1 ± 0.3 µM.

With `COc1cc(/C=C/C(=O)O)ccc1O` [Ferulic acid] as the molecule, how does the Km [3] read?
The Km was 19 ± 2 µM.

And the Km [4]?
Its Km is 19 ± 1 µM.

`CCn1c(=NN=c2sc3cc(S(=O)(=O)O)ccc3n2CC)sc2cc(S(=O)(=O)O)ccc21` [ABTS] was tested. Which Km [5] did it give?
Its Km is 17 ± 2 µM.

And the Km [6]?
Its Km is 17 ± 2 µM.

Which Km [7] does the source give for `COc1cc([C@@H]2OC[C@@H]3[C@H]2CO[C@H]3c2ccc(O)c(OC)c2)ccc1O` [Pinoresinol] here?
Its Km is 149 ± 22 µM.

What about the Km [8] of the same molecule?
The Km was 89 ± 12 µM.

How did the Km [9] turn out when `COc1cccc(OC)c1O` [2,6-DMP] was run?
Its Km is 8 ± 1 µM.

And the Km [10]?
Its Km is 7 ± 1 µM.

With `COc1cc(/C=C/C(=O)O)cc(OC)c1O` [Sinapic acid] as the molecule, how does the Km [11] read?
The Km was 9 ± 1 µM.

What about the Km [12] of the same molecule?
Its Km is 8 ± 1 µM.

B1: CcL (Coriolopsis caperata laccase) (Cerrena caperata) (protein)
chain: GIGPVTDLTISDGPVSPDGFTRQAILVNNQFPSPLITGNKGDRFQLNVIDNMNNHTMLKSTSIHWHGFFQHGTNWADGPAFVNQCPISPGHSFLYDFQVPDQAGTFWYHSHLSTQYCDGLRGPIVVYDPQDPHKDLYDVDDDSTVITLADWYHLAAKVGPAVPTADATLINGLGRSISTLNADLAVISVTKGKRYRFRLVSLSCDPNHTFSIDGHTMTVIEADSVNLKPQVVDSIQIFAAQRYSFVLNADQDIGNYWIRAMPNSGTRNFDGGVNSAILRYDGADPVEPTTTQTPSSQPLVESALTTLEGTAAPGSPTAGGVDLAINMAFGFAGGRFTINGASFTPPTVPVLLQILSGAQNAQDLLPTGSVYSLPANADIEISLPATAAAPGFPHPFHLHGHTFAVVRSAGSSTYNYANPVYRDVVSTGSPGDNVTIRFRTDNPGPWFLHCHIDFHLEAGFAVVMAEDIPDVAAVNPVPQAWSDLCPTYNALDPNDQ
With B1 as the molecule, how does the Km [13] read?
Its Km is 696 µM.

And the kcat [13]?
The kcat was 165 ± 12 s⁻¹.

What about the kcat/Km [13] of the same molecule?
The kcat/Km was 237000 M⁻¹ s⁻¹.

And the Km [14]?
The Km was 129 µM.

And the kcat [14]?
Its kcat is 55 ± 2 s⁻¹.

What about the kcat/Km [14] of the same molecule?
The kcat/Km was 434000 M⁻¹ s⁻¹.

And the Km [15]?
Its Km is 815 µM.

What about the kcat [15] of the same molecule?
The kcat was 269 ± 6 s⁻¹.

What about the kcat/Km [15] of the same molecule?
The kcat/Km was 330000 M⁻¹ s⁻¹.

What about the Km [16] of the same molecule?
The Km was 65 µM.

And the kcat [16]?
Its kcat is 121 ± 8 s⁻¹.

And the kcat/Km [16]?
Its kcat/Km is 1.86e+06 M⁻¹ s⁻¹.

And the Km (purified protein [17])?
Its Km is 17 ± 2 µM.

What about the kcat (purified protein [17]) of the same molecule?
The kcat was 324 ± 31 s⁻¹.

And the kcat/Km (purified protein [17])?
The kcat/Km was 1.91e+07 M⁻¹ s⁻¹.

And the Km (purified protein [18])?
Its Km is 5 ± 0.3 µM.

What about the kcat (purified protein [18]) of the same molecule?
Its kcat is 122 ± 2 s⁻¹.

And the kcat/Km (purified protein [18])?
The kcat/Km was 2.44e+07 M⁻¹ s⁻¹.

What about the Km (purified protein [19]) of the same molecule?
The Km was 20 ± 2 µM.

What about the kcat (purified protein [19]) of the same molecule?
Its kcat is 234 s⁻¹.

And the kcat/Km (purified protein [19])?
Its kcat/Km is 1.17e+07 M⁻¹ s⁻¹.

B2: ThL (Trametes hirsuta laccase) (Trametes hirsuta) (protein)
chain: AVGPVADLTITDAAVSPDGFSRQAVVVNGVTPGPLVAGNIGDRFQLNVIDNLTNHTMLKSTSIHWHGFFQHGTNWADGPAFINQCPISPGHSFLYDFQVPDQAGTFWYHSHLSTQYCDGLRGPFVVYDPNDPHASRYDVDNDDTVITLADWYHTAAKLGPRFPGGADATLINGKGRAPSDSPAELSVIKVTKGKRYRFRLVSLSCNPNHTFSIDGHNLTIIEVDSVNSQPLEVDSIQIFAAQRYSFVLDANQAVDNYWIRANPNFGNVGFDGGINSAILRYDGAPAVEPTTNQTTSVKPLNEVDLHPLVSTPVPGSPSSGGVDKAINMAFNFNGSNFFINGASFVPPTVPVLLQILSGAQTAQDLLPSGSVYVLPSNASIEISFPATAAAPGAPHPFHLHGHTFAVVRSAGSTVYNYDNPIFRDVVSTGTPAAGDNVTIRFDTNNPGPWFLHCHIDFHLEGGFAVVMAEDTPDVKAVNPVPQAWSDLCPTYDALDPNDQ
B2 was tested. Which Km [20] did it give?
Its Km is 28 µM.

What about the kcat [20] of the same molecule?
The kcat was 270 ± 25 s⁻¹.

And the kcat/Km [20]?
Its kcat/Km is 9.64e+06 M⁻¹ s⁻¹.

What about the Km [13] of the same molecule?
The Km was 173 µM.

And the kcat [13]?
The kcat was 162 ± 10 s⁻¹.

And the kcat/Km [13]?
Its kcat/Km is 976000 M⁻¹ s⁻¹.

What about the Km [14] of the same molecule?
The Km was 223 µM.

What about the kcat [14] of the same molecule?
The kcat was 58 ± 3 s⁻¹.

And the kcat/Km [14]?
The kcat/Km was 260000 M⁻¹ s⁻¹.

And the Km [15]?
The Km was 183 µM.

And the kcat [15]?
Its kcat is 302 ± 27 s⁻¹.

What about the kcat/Km [15] of the same molecule?
The kcat/Km was 1.65e+06 M⁻¹ s⁻¹.

What about the Km [21] of the same molecule?
The Km was 34 µM.

What about the kcat [21] of the same molecule?
The kcat was 131 ± 10 s⁻¹.

And the kcat/Km [21]?
Its kcat/Km is 3.85e+06 M⁻¹ s⁻¹.

What about the Km [22] of the same molecule?
Its Km is 61 ± 8 µM.

What about the kcat [22] of the same molecule?
The kcat was 73 ± 3 s⁻¹.

What about the kcat/Km [22] of the same molecule?
The kcat/Km was 1.2e+06 M⁻¹ s⁻¹.

What about the Km (purified protein [23]) of the same molecule?
The Km was 13 ± 1 µM.

What about the kcat (purified protein [23]) of the same molecule?
Its kcat is 317 ± 23 s⁻¹.

And the kcat/Km (purified protein [23])?
Its kcat/Km is 2.44e+07 M⁻¹ s⁻¹.

And the Km (purified protein [24])?
Its Km is 24 ± 2 µM.

And the kcat (purified protein [24])?
Its kcat is 128 ± 11 s⁻¹.

What about the kcat/Km (purified protein [24]) of the same molecule?
The kcat/Km was 5.33e+06 M⁻¹ s⁻¹.
